Results taken from article PMC10008584, “Cryo-EM structures of human Cx36/GJD2 neuronal gap junction channel” (Nature Communications, 2023).
One block for each molecule: values may come before it.

Assays:
[1] = target: BRIL-fused human Cx36 (cytoplasmic loop residues 109-187 replaced with cytochrome b562RIL) (UniProt Q9UKL4); test: cryo-EM structure; single-particle cryo-EM of the purified gap junction channel in LMNG/CHS detergent; D6 symmetry; 50 mM phenylalanine added for Cx36-WT
[2] = target: the molecule itself; test: as above
[3] = target: the molecule itself; test: cryo-EM structure; single-particle cryo-EM of the purified gap junction channel in MSP1E1 nanodiscs with soybean polar lipid extract; D6, C6 or C1 symmetry; 50 mM phenylalanine added for Cx36-WT

stoichiometry N [1]: 12
Molecule: BRIL-fused human Cx36 (cytoplasmic loop residues 109-187 replaced with cytochrome b562RIL) (from UniProt Q9UKL4 1-108; P0ABE7 21-128; Q9UKL4 188-321)

B1: Wild-type human connexin 36 (Cx36/GJD2) gap junction channel (natural protein, UniProt Q9UKL4 1-321, looked up)
chain: MGEWTILERLLEAAVQQHSTMIGRILLTVVVIFRILIVAIVGETVYDDEQTMFVCNTLQPGCNQACYDRAFPISHIRYWVFQIIMVCTPSLCFITYSVHQSAKQRERRYSTVFLALDRDPPESIGGPGGTGGGGSGGGKREDKKLQNAIVNGVLQNTENTSKETEPDCLEVKELTPHPSGLRTASKSKLRRQEGISRFYIIQVVFRNALEIGFLVGQYFLYGFSVPGLYECNRYPCIKEVECYVSRPTEKTVFLVFMFAVSGICVVLNLAELNHLGWRKIKLAVRGAQAKRKSIYEIRNKDLPRVSVPNFGRTQSSDSAYV
notes: Connexin 36 (Cx36, GJD2), human, full length (Met1-Val321); The tags were cut off at an HRV 3C site between Cx36 and eYFP; residues of the site may be left at the C-terminus; also called Cx36-WT; Cx36_(LMNG)-WT; source: HEK293E, transiently transfected, purified (Rho-1D4 antibody resin, HRV 3C cleavage, Superose 6 Increase SEC); in LMNG/CHS or reconstituted in MSP1E1 soybean lipid nanodiscs; not …
stoichiometry N [2]: 12

B2: Human Cx36 with N-terminal residues 2-8 deleted (natural protein, UniProt Q9UKL4 1-321, looked up)
chain: MRLLEAAVQQHSTMIGRILLTVVVIFRILIVAIVGETVYDDEQTMFVCNTLQPGCNQACYDRAFPISHIRYWVFQIIMVCTPSLCFITYSVHQSAKQRERRYSTVFLALDRDPPESIGGPGGTGGGGSGGGKREDKKLQNAIVNGVLQNTENTSKETEPDCLEVKELTPHPSGLRTASKSKLRRQEGISRFYIIQVVFRNALEIGFLVGQYFLYGFSVPGLYECNRYPCIKEVECYVSRPTEKTVFLVFMFAVSGICVVLNLAELNHLGWRKIKLAVRGAQAKRKSIYEIRNKDLPRVSVPNFGRTQSSDSAYV
notes: Connexin 36 (Cx36, GJD2), human, full length with 7 N-terminal residues (2-8) deleted; Made by PCR from pXY-Cx36-WT; expressed and purified by the same protocol as Cx36-WT; also called Cx36-ΔN8; Cx36_(Nano)-ΔN8; source: HEK293E, transiently transfected, purified as Cx36-WT; reconstituted in MSP1E1 soybean lipid nanodiscs; not shown: eYFP, C-terminal, cleaved; 10xHis, C-terminal, cleaved; copies: …
binding result [3]: binds
